Results: the nanobody polyreactivity screen of Harvey et al. (2022)

Test: yeast display, Sf9 membrane polyspecificity reagent, FACS + sequencing; frameworks hold sequencing errors
Method in brief: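 Galactose induction of a Saccharomyces cerevisiae BJ5465 synthetic nanobody display library ran 36–48 hours. The cells were then stained for 1 hour at 4 °C with 10% biotinylated, detergent-solubilized Sf9 membrane reagent, pulled down on streptavidin microbeads and FACS-sorted into low and high (top ~1%) gates on expression and reagent-binding fluorescence. Labels for polyreactivity follow the gate of origin.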

Row | Sequence | polyreactivity (PSR sort gate)
1 | QVQLVESGGGLVQAGGSLRLSCAASGSIFPDNTMGWYRQAPGKERELVAAIDGRGGTTYYADSVKGRFTISRDNAKNTVYLQMNSLKPEDTAVYYCARDIGHSARYDYWGQGTQVTVSS | low polyreactivity
2 | QVQLVESGGGLVQAGGSLRLSCAASGGTLRGYAMGWYRQAPGKERELVAAISKRSGSTYYADSVKGRFTISRDNAKNTVYLQMNSLKPEDTAVYYCNTRGLTTEGHYYWGQGTQVTVSS | high polyreactivity
3 | QVQHVESGGGLVQAGGSLRLSCAASGSTFVQYAMGWYRQAPGKERELVAAIRGRGDSTYYADSVKGRFTISRDNAKNTVYLQMNSLKPEDTAVYYCAARGQGSRGMYYWGQGTQVTVSS | low polyreactivity
4 | QVQLVESGGGLVQAGGSLRLSCASSGSNFGRYAMGWYRQAPGKEREFVAAISRSSDNTSYADSVKGRFTISRDIAKNTVYLQMNRLNPEDRAVYYCNADRPFSLGQRKYVDFDEPYNYWGQGTQVTVSS | low polyreactivity
5 | QVQLVESGGGLVQAGGCLRLSCAASGLIFIKYTMGWYRQAPGKERELVAVISGSGGSTYYADSVKGRFTISRDNAKNTVYLQMNSLKPEDTAVYYCAARSYALGYGGGYWGQGTQVTVSS | high polyreactivity
6 | QVQLVESGGGLVQAGGSLRLSCAASGRTFRYYAMGWYRQPPGKERELVATITGSGGSTYYADSVKGRFTISRDNAKNTVYVQMNSLKPEDTAVYDCNARKVRYPYRWYDYWGQGTQVTVSS | high polyreactivity
7 | QVQLVESGGGLVQAGGSLRLSCAASGRTFRWYAMGWYIQAPGKERELVAAITSGGSTYYADSVKGRFTISRDNAKNTVYLQMNSLKPEDTAVYYCNAVSTSGAFDYWGQGTQVTVSS | high polyreactivity
8 | QVQLVESGGGLVQAGGSLRLSCAASGLIFRLYAMGWYRQAPGKERELVAAISGGGGSTYYADSVKGRFTISRDNAKNTVYLQMNSLKPEDTAVYYCAATYSRGYWWSEYDYWGQGTQVTVSS | low polyreactivity
9 | QVQLVESGGGLVQAGGSLLLSCAASGFIFDYNAMGGYRPAPGKETELVAAISRSGGSTYADSVKGRFTFSRDNAMNTVYLQMNSLKPEDTAVYYCAADILSRSRSRRVDYWGQGTQVTVSS | low polyreactivity
10 | QVQLVESGGGLVQAGGSLRLSCAASGSIFGGYAMGWYRQAPGKERELVATITRGGSTYYADSVKGRFTISRDNAKNTVYFQMNSLKPEDTAVYYCAARLRSKTYYTLEFDYWGQGTQVTVSS | high polyreactivity
11 | QVQLVESGGGLVQAGGSLRLSCAASGSTFSYSTMVWYRQPPGKERELVATISRRGASTYYADSVKGRFTISRDNAKNTVYLQMNSLKPEDTAVYYCAKSYYYGRSATRPEYDYWGQGTQVTVSS | high polyreactivity
12 | QVQLVESGGGLVQAGGSHRLSCAASGRIFAHNAMGWYSQAPGKERELVAAITWSGGSTYYADSVKGRFTISRDNAKNTVYLQMNSLKPEDTAVYYCNTDSHGHLYNYWGQGTQVTVSS | low polyreactivity
13 | QVQLVESGGGLVQAGGSLRLSCAASGFTFYYYAMGWYRQAPGKERELVAAINRSGGSTYYADSVKGRFTISRDNAKNTVYLQMNSLKPEDTAVYYCNKRLLVSRSSAQPYGYWGQGTQVTVSS | high polyreactivity
14 | QVQLVESGGGLVQAGGSLRFSCAASGSIFYGYTMGWYRQAPGKERELVAGISTYYADSVKGRFTISRDTAKNTVYLQMNSLKPEDTAVYYCAADYSSPTSEYDYWGQGTQVTVSS | low polyreactivity
15 | QVQLVESGGGLVQAGGRLRLSCAASGRTFLVNAMGWYRQAPGKERELVAAISQRGGSTDYADSVKGRFTISRDNAKNTVYLQMNSLKPEDTAVYYCAVRWGYLYDYWGQVTQVTVSS | low polyreactivity
16 | QVQLVESGGGLVQAGGSLRLSCAASGGIFRYYAMGWYRQAPGKERELVAAISRSGDSTYYADSVKGRFTISRDNAKNTVYLQMNSLKPEDTAVYYCAATRLYWKIFYGDGDYWGQGTQVTVSS | high polyreactivity
17 | QVQLVESGGGLVQAGGSLRLSCAASGQIFYTNTMGWYRQAPGKERELVAAINSGDRTYYADSVKGRFTISRDNAKNTVYLQMNSLKPEDTAVYYCAARNYATAVRYDYWGQGTQVTVSS | high polyreactivity
18 | QVQLGESCGRLVQAGGSLRLSCADSGLTFSVYAMGWYRQSPGKETELVAAISYSGDSTYADSVKGRFTISRDNAKNTVYLQMNSLKPEDTAGYYCHAPLVHQGYRRWYDYWGQGTQVTVSS | low polyreactivity
19 | QVQLVESWGGLVQAGGSLRLSCAASGSIFSPYAIGWYRQAPGKERELVAAISFRASTTYYADSVKGRFTITRDNAKNTVYLQMNSLKPEDTAVYYCAASPLYSWFWGLYDYWGQGTQVTVSS | low polyreactivity
20 | QVQLVESGGGLVQAGGSLRLSCAASGNIFNYNAMGWYRQATGNERELVAAISFSGGSTYYADSVKARFTISRDNAQNTVYLQMNSLKPEDTAVYYCAKAERNYFEYWGQGTQVTVSS | high polyreactivity
21 | QVQLVESGGGLVQAGGTLRLSCAPSGSTFVPNAMGWYRQAPGKERELVATITSSSSRTYYADSVKGRFTISRDNAKNTVYLQMNSLKPEDTAVYYCAADGRRVVARYDYWGQGTQVTVSS | high polyreactivity
22 | QVQIVESGGGLVQAGGSLRLICAASGRIFYRYAMGWYRQAPGKERELVAAISSGSSTNYADSVKGRFTISRDNAKNTVYLQMNSLKPEDTAVYYCNAERYGKSWRYCYWGQGTQVTVSS | high polyreactivity
